Reference: patent US20220324953A1 (JIANGSU HENGRUI MEDICINE, published 2022)
Numbering of substitutions follows the chain as printed.

B1: positive control CTGF antibody mAb1 (antibody, V domains shown)
VH: EGQLVQSGGGLVHPGGSLRLSCAGSGFTFSSYGMHWVRQAPGKGLEWVSGIGTGGGTYSTDSVKGRFTISRDNAKNSLYLQMNSLRAEDMAVYYCARGDYYGSGSFFDCWGQGTLVTVSS
VL: DIQMTQSPSSLSASVGDRVTITCRASQGISSWLAWYQQKPEKAPKSLIYAASSLQSGVPSRFSGSGSGTDFTLTISSLQPEDFATYYCQQYNSYPPTFGQGTKLEIKR
notes: Positive control, from CN1829740B; also called pamrevlumab; FG-3019
B2: Hu164-68wl (antibody, human IgG1, lambda, V domains shown)
VH: EVTLKESGPVLVKPTETLTLTCTVSGFSLSTFGVHWIRQPPGKGLEWLGVIWRRGGTDYNAAFMSRLTISKDTSKSQVVFTMTNMDPVDTATYYCARDGGFDYWGQGTTVTVSS
VL: ETVVTQEPSFSVSPGGTVTLTCRSSIGAVTTSNYANWVQQTPGQAFRGLIGGTSNRAPGVPDRFSGSILGNKAALTITGAQADDESDYYCALWYSTHYVFGGGTKLTVLG
B3: Hu164-69wl (antibody, human IgG1, lambda, V domains shown)
VH: B2 VH
VL: ESVVTQPPSVSGAPGQRVTISCRSSIGAVTTSNYANWVQQLPGTAFKGLIGGTSNRAPGVPDRFSGSKSGTSASLAITGLQAEDEADYYCALWYSTHYVFGGGTKLTVLG
B4: Hu164-77wl (antibody, human IgG1, lambda, V domains shown)
VH: EVQLQESGPGLVKPSQTLSLTCTVSGFSISTFGVHWIRQHPGKGLEWIGVIWRRGGTDYNAAFMSRVTISKDTSKNQVSLKLSSVTAADTAVYYCARDGGFDYWGQGTTVTVSS
VL: ETVVTQEPSLTVSPGGTVTLTCRSSIGAVTTSNYANWVQQKPGQAFRGLIGGTSNRAPWTPARFSGSLLGGKAALTLSGVQPEDEAEYYCALWYSTHYVFGGGTKLTVLG
B5: Hu164-57wl (antibody, human IgG1, lambda, V domains shown)
VH: B2 VH with G44A, G49A, F80L
VL: B4 VL
B6: Hu164-87wl (antibody, human IgG1, lambda, V domains shown)
VH: B4 VH with I48L, V67L, L80F
VL: B4 VL
B7: Hu147-22wk (antibody, human IgG1, kappa, V domains shown)
VH: EVQLVESGGGLVQPGGSLRLSCAASGFTFNTYAMNWVRQAPGKGLEWVARIRTKSNNYATYYADSVKDRFTISRDDSKNSLYLQMNSLKTEDTAVYYCVETGFAYWDQGTLVTVSS
VL: EIVLTQSPATLSLSPGERATLSCSASSSVSYMHWFQQKPGQSPKLLIYSTSNLASGIPARFSGSGSGTDYTLTISSLEPEDFAVYYCQQRSSYPLTFGQGTKLEIKR
B8: Hu147-14wk (antibody, human IgG1, kappa, V domains shown)
VH: B7 VH with N30S, A49G
VL: DIQMTQSPSSLSASVGDRVTITCSASSSVSYMHWFQQKPGKSPKLLIYSTSNLASGVPSRFSGSGSGTDYTLTISSLQPEDFATYYCQQRSSYPLTFGQGTKLEIKR
B9: Hu147-23wk (antibody, human IgG1, kappa, V domains shown)
VH: B7 VH
VL: B7 VL with L46W, I57V
B10: Hu147-15wk (antibody, human IgG1, kappa, V domains shown)
VH: B7 VH with N30S, A49G
VL: B8 VL with M4L, L46W
B11: Hu147-11wk (antibody, human IgG1, kappa, V domains shown)
VH: B7 VH with N30S, A49G
VL: B7 VL with K44R
B12: Hu147-24wk (antibody, human IgG1, kappa, V domains shown)
VH: B7 VH
VL: B8 VL
B13: Hu147-34wk (antibody, human IgG1, kappa, V domains shown)
VH: B7 VH with T28S, K78E, N79S
VL: B8 VL
B14: Hu147-13wk (antibody, human IgG1, kappa, V domains shown)
VH: B7 VH with N30S, A49G
VL: B7 VL with L46W, I57V
B15: Hu147-21wk (antibody, human IgG1, kappa, V domains shown)
VH: B7 VH
VL: B7 VL with K44R
B16: Hu147-31wk (antibody, human IgG1, kappa, V domains shown)
VH: B7 VH with T28S, K78E, N79S
VL: B7 VL with K44R

What follows are binders tested against T1, Mouse CTGF protein-His tag (mouse, UniProt P29268 26-348) (assay: ELISA, plate coated with mouse CTGF-his).
T1 construct: C-terminal His tag; also called mouse CTGF-his protein; mouse CTGF fusion protein
T1 sequence: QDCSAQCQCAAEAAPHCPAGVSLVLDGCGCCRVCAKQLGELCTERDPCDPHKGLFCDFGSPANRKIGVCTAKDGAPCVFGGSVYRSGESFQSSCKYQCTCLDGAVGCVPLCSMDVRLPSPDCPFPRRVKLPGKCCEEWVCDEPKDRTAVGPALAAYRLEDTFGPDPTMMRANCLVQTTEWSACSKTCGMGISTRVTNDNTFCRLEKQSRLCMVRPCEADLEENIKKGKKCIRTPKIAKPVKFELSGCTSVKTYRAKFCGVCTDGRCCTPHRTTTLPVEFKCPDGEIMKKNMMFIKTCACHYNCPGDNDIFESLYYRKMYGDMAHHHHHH
Procedure: The binding activity of anti-mouse CTGF antibody to mouse CTGF protein was tested by ELISA assay. A 96-well microtiter plate was directly coated with the mouse CTGF fusion protein. The signal strength upon the addition of the antibody was used to determine the binding activity of the antibody to mouse CTGF. The specific experimental procedures were as follows:
The mouse CTGF-his protein was diluted with PBS, pH 7.4 (Shanghai Yuanpei, Cat No. B320) buffer to a concentration of 0.5 μg/ml, added into the 96-well microtiter plate (Corning, Cat No. CLS3590-100EA) at 50 μl/well, and incubated in an incubator at 37° C. for 2 hours. The liquid was removed, 250 μl/well blocking solution (5% skim milk (BD skim milk, Cat No. 232100) diluted in PBS) was added, and incubated in an incubator at 37° C. for 3 hours or at 4° C. overnight (16-18 hours) for blocking. After the blocking was finished, the blocking solution was removed, the plate was washed for 3 times with PBST buffer (PBS containing 0.1% Tween-20, pH 7.4), 50 μl/well of various concentrations of each of the test antibodies (antibodies purified from hybridoma or humanized antibodies) diluted with sample dilution solution were added, and incubated in an incubator at 37° C. for 1 hours. After the incubation was finished, the plate was washed for 3 times with PBST, 50 μl/well of HRP-labeled goat anti-mouse secondary antibody (Jackson Immuno Research, Cat No. 115-035-003) or goat anti-human secondary antibody (Jackson Immuno Research, Cat No. 109-035-003) diluted with sample dilution solution was added, and incubated at 37° C. for 1 hour. The plate was washed for 5 times with PBST, 50 μl/well of TMB chromogenic substrate (KPL, Cat No. 52-00-03) was added, incubated at room temperature for 5-10min, and 50 μl/well of 1 M H₂SO₄ was added to stop the reaction. The absorbance value was read by a microplate reader (Molecular Devices, VERSA max) at a wavelength of 450 nm, and the data was analyzed with GraphPad Prism 5. The binding of CTGF antibody to mouse CTGF protein was calculated as EC50 value.
Work on B1 yielded an EC50 of 0.077 nM.
In the case of B2, the EC50 is reported as 0.065 nM.
Binder B3 has an EC50 of 0.059 nM.
For B4, the EC50 was 0.058 nM.
B5 was tested, and the EC50 was 0.041 nM.
Binder B6 has an EC50 of 0.067 nM.
B7 was tested, and the EC50 was 0.336 nM.
B8 was tested, and the EC50 was 0.431 nM.
B9 was tested, and the EC50 was 0.2 nM.
In the case of B10, the EC50 is reported as 0.159 nM.
B11 showed an EC50 of 0.228 nM.
B12 showed an EC50 of 0.263 nM.
Work on B13 yielded an EC50 of 0.664 nM.
B14 showed an EC50 of 0.127 nM.
For B15, the EC50 was 0.247 nM.
Binder B16 has an EC50 of 0.32 nM.

These binders were tested against T2, human CTGF (antigen of the Biacore assays) (human, UniProt P29279 27-349) (assay: Biacore, CTGF immobilised, antibody 150 µg/ml then 50 nM TGF-β1 (competitor TGF-β1)).
T2 construct: also called antigen human CTGF; human CTGF protein
T2 sequence (looked up): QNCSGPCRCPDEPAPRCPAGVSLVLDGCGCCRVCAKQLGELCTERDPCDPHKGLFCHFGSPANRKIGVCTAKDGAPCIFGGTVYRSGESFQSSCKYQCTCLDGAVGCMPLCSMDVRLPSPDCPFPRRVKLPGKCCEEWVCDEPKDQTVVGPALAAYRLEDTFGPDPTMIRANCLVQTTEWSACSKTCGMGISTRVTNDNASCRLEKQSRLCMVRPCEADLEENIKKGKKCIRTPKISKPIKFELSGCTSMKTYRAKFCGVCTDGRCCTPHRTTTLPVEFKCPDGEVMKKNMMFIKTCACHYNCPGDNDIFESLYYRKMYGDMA
Procedure: First, the antigen human CTGF was immobilized onto a CMS biosensor chip (Cat. # BR-1005-30, GE) by amino coupling, with an immobilization level of 1500 RU, and then a high concentration of CTGF antibody (150 μg/ml) was allowed to flow through the surface of the chip for 150 s; 50 nM TGF-β1 protein was injected for 120 s, and the reaction signals were detected in real time with the Biacore T200 instrument to generate a binding and dissociation curve. After the dissociation was completed in each of the experimental cycles, the biosensor chip was washed and regenerated with regeneration buffer.
The resulting experimental data were statistically analyzed with GE Biacore T200 Evaluation version 3.0 software.
With B1 the “Function-blocking percentage (%)” value was 41.3%.
B7 was tested, and the “Function-blocking percentage (%)” value was 52.3%.
For B8, the “Function-blocking percentage (%)” value was 50.9%.
B9 was tested, and the “Function-blocking percentage (%)” value was 54.6%.
With B10 the “Function-blocking percentage (%)” value was 52.3%.
B11 was tested, and the “Function-blocking percentage (%)” value was 50.8%.
With B12 the “Function-blocking percentage (%)” value was 52.8%.
B13 was tested, and the “Function-blocking percentage (%)” value was 56.2%.
With B14 the “Function-blocking percentage (%)” value was 53.3%.
B15 was tested, and the “Function-blocking percentage (%)” value was 51.6%.
For B16, the “Function-blocking percentage (%)” value was 55%.

The binders below were run against T3, mouse CTGF (antigen of the Biacore assay) (mouse, UniProt P29268 26-348) (assay: Biacore, antibody captured on Protein A, mouse CTGF in flow, 1:1 fit).
T3 construct: also called mouse CTGF protein
T3 sequence (looked up): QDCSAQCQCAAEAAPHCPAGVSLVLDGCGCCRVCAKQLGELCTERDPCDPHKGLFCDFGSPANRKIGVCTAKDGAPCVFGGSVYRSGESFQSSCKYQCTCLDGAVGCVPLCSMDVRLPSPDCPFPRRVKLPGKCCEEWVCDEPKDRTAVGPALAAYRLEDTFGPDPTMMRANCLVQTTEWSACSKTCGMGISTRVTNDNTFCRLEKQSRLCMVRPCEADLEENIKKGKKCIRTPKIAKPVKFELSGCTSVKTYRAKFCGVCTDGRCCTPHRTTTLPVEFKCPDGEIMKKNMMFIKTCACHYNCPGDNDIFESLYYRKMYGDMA
Excerpt: A certain amount of each of the test antibodies was affinity-captured with Protein A biosensor chip (Cat. # 29127556, GE), and then a certain concentration of human or mouse CTGF was allowed to flow through the surface of the chip. The reaction signals were detected in real time with Biacore instrument to generate a binding and dissociation curve. After the dissociation was completed in each cycle, the biosensor chip was washed and regenerated with Glycine-HCl regeneration solution pH 1.5 (Cat. # BR-1003-54, GE). The running buffer for the assay was 1×HBS-EP buffer solution (Cat. # BR-1001-88, GE).
Work on B2 yielded a Kd of 0.133 nM, a koff of 0.0076 s⁻¹ and a kon of 5.7e+07 M⁻¹ s⁻¹.
Work on B3 yielded a Kd of 0.126 nM, a koff of 0.00774 s⁻¹ and a kon of 6.17e+07 M⁻¹ s⁻¹.
Binder B4 has a Kd of 0.148 nM, a koff of 0.00883 s⁻¹ and a kon of 5.98e+07 M⁻¹ s⁻¹.
Work on B5 yielded a Kd of 0.0322 nM, a koff of 0.00237 s⁻¹ and a kon of 7.35e+07 M⁻¹ s⁻¹.
In the case of B6, the Kd is reported as 0.084 nM, the koff is reported as 0.0044 s⁻¹ and the kon is reported as 5.24e+07 M⁻¹ s⁻¹.
B9 gave a Kd of 2.12 nM, a koff of 0.173 s⁻¹ and a kon of 8.18e+07 M⁻¹ s⁻¹.
Binder B11 has a Kd of 3.11 nM, a koff of 0.374 s⁻¹ and a kon of 1.2e+08 M⁻¹ s⁻¹.
With B14 the Kd was 2.55 nM, the koff was 0.146 s⁻¹ and the kon was 5.73e+07 M⁻¹ s⁻¹.
With B16 the Kd was 2.79 nM, the koff was 0.107 s⁻¹ and the kon was 3.83e+07 M⁻¹ s⁻¹.
